Target: Aspergillus nidulans (An) Rpf2 (Aspergillus nidulans)
Assay: SEC; size exclusion chromatography of the An Rpf2-Rrs1 complex in solution; conditions not given (preparation in ref. 22)

Aspergillus nidulans (An) Rrs1 (natural protein)
stoichiometry N: 1

From PMC4482071
